{"source": "patent US9617344B2", "about": "“Fusion protein comprising targeting moiety, cleavage site, and cell membrane penetrating domain, and use thereof” (Samsung Electronics Co., Ltd., priority 2014, dated 2017)", "molecules": {"B1": {"name": "Darpin: Negative control; Mock Darpin having no binding target; SEQ ID NO: 43 (protein)", "chain": "GSDLGKKLLEAARAGQDDEVRILMANGADVNAEDKVGLTPLHLAAMNDHLEIVEVLLKNGADVNAIDAIGETPLHLVAMYGHLEIVEVLLKHGADVNAQDKFGKTAFDISIDNGNEDLAEILQKLN", "modifications": "Synthetic Non-EGFR targeting DARPin"}, "B2": {"name": "p16M7: Human p16 protein variant with seven substitutions for improved solubility (SEQ ID NO: 2) (protein)", "chain": "MEPAAGSSMEPSADKLATAAARGRVEEVRALLEAGADPNAPNSYGRRPIQVMMMGSARVAELLLKHGAEPNSADPATSTRPVHDAAREGFLDTLVVLHRAGARLDARDAWGRTPVDLAEELGHRDVARYLRAAAGGTRGSNHARIDAAEGPSDIPD", "modifications": "Synthetic Human p16 Variant"}, "B3": {"name": "D(EGFR)-M9R-MTS-NLS-p16M7: Conjugate: anti-EGFR DARPin (SEQ ID NO: 7), MMP9 cleavage site M9R, MTS-NLS fusion peptide, p16 variant p16M7; SEQ ID NO: 35 (protein)", "chain": "DLGKKLLEAARAGQDDEVRILMANGADVNADDTWGWTPLHLAAYQGHLEIVEVLLKNGADVNAYDYIGWTPLHLAADGHLEIVEVLLKNGADVNASDYIGDTPLHLAAHNGHLEIVEVLLKHGADVNAQDKFGKTAFDISIDNGNEDLAEILQSGKIPRTLTAAAVALLPAVLLALLAPKKKRKMEPAAGSSMEPSADKLATAAARGRVEEVRALLEAGADPNAPNSYGRRPIQVMMMGSARVAELLLKHGAEPNSADPATSTRPVHDAAREGFLDTLVVLHRAGARLDARDAWGRTPVDLAEELGHRDVARYLRAAAGGTRGSNHARIDAAEGPSDIPD", "modifications": "Synthetic Conjugate (anti-EGFR DARPin-M9R- MTS-NLS-p16M7)"}, "B4": {"name": "D(EGFR)-M9R-p16M7: Comparison conjugate lacking MTS-NLS: SEQ ID NO: 7-SEQ ID NO: 26-SEQ ID NO: 2 (protein)", "chain": "DLGKKLLEAARAGQDDEVRILMANGADVNADDTWGWTPLHLAAYQGHLEIVEVLLKNGADVNAYDYIGWTPLHLAADGHLEIVEVLLKNGADVNASDYIGDTPLHLAAHNGHLEIVEVLLKHGADVNAQDKFGKTAFDISIDNGNEDLAEILQSGKIPRTLTAMEPAAGSSMEPSADKLATAAARGRVEEVRALLEAGADPNAPNSYGRRPIQVMMMGSARVAELLLKHGAEPNSADPATSTRPVHDAAREGFLDTLVVLHRAGARLDARDAWGRTPVDLAEELGHRDVARYLRAAAGGTRGSNHARIDAAEGPSDIPD", "modifications": "Synthetic anti-EGFR DARPin-01; Synthetic MMP9 cleavage region; Synthetic Human p16 Variant"}}, "key": {"EGFR present in A431": {"target": "T1, EGFR present in A431 (Homo sapiens, UniProt P00533)", "T1 construct": "EGFR present in A431; host or cells: A431", "experiment": "Tumor cell targeting test (confocal imaging of protein binding to A431 cells)", "format": "cell-based", "conditions": "A431 cells treated with 7.5 or 15 ug/ml for one hour; fluorescent imaging, FIG. 2; positive control Erbitux"}, "A431 cells": {"system": "A431 cells", "experiment": "Cell cycle arrest test (gene transfection, DNA content by FACS)", "format": "cell-based", "conditions": "gene transfected into A431 cells with Lipofectamine 2000; compared to p16WT; FIGS. 3 and 4", "method": "A vector containing a gene encoding ‘p16M7’ or ‘p16WT’ (wild-type) was transfected into A431 cells (ATCC) by liposomal transfection method using Lipofectamine 2000 (Invitrogen) (see Example 1). The transfection was performed according to a manual provided by Invitrogen. 24 hours after the transfection, the medium was exchanged with a fresh medium. At 24 hours 48 hours thereafter, DNA contents were measured by FACS.\nAfter transfecting the p16M7 gene or p16WT gene into cells using Lipo2000, the presence of cell cycle arrest was observed. […] For labeling, pEGFP-C2 vector (Clontech) for p16WT and p16M7 (indicated as “p16 Mut” in FIG. 3). […] FIG. 4 contains graphs quantitatively showing the degree of cell cycle arrest of FIG. 3, wherein “% frequency” of Y axis refers to a value of cell population obtained through Flow jo software, each symbol in X axis refers to the follows: C2-6: using EGFP only (6 ul), C2-10: using EGFP only (10 ul), Mut: using p16M7 (6 ul or 10 ul) and WT: using p16WT (6 ul or 10 ul)."}, "MDA-MB-231 xenograft": {"system": "MDA-MB-231 xenograft", "experiment": "Anticancer effect in MDA-MB-231 xenograft mouse model", "format": "in vivo, BALB/c nude mouse", "conditions": "75 uM/0.1 ml/mouse administered to the tumor tissue once a day", "method": "To examine the anticancer effect of the conjugate of Example 2, a xenograft mouse model was employed. The xenograft mouse model was prepared by an […] injection of intractable breast cancer cell line MDA-MB-231 into breast tissue of 6-week old BALB/c nude mouse to form a tumor tissue.\nIn particular, 8×10^6 cells (in 0.08 ml of PBS with matrigel) of MDA-MB-231 (ATCC) were […] of 6-week old BALB/c nude mouse to prepare a xenograft mouse model (Orthotopic mouse model). When the tumor size reaches […], the xenograft mouse model was used in the following experiment.\nThe obtained results are shown in FIG. 7, and the degree (%) of tumor size reduction (tumor growth inhibition; TGI) compared to the buffer administered group calculated from the results of FIG. 7 was shown in Table 4: […]"}}}
{"molecule": "B1", "values": [{"measurement": "binding ability to EGFR present in A431", "setting": "EGFR present in A431", "result": "little binding ability"}]}
{"molecule": "B2", "values": [{"measurement": "cell cycle arrest effect", "setting": "A431 cells", "result": "maintaining the cell cycle arrest effect"}]}
{"molecule": "B3", "values": [{"measurement": "increased anticancer effect compared to the control [Darpin(EGFR)]", "setting": "MDA-MB-231 xenograft; versus D(EGFR) group", "result": "about 21.4%"}]}
{"molecule": "B4", "values": [{"measurement": "degree (%) of tumor size reduction (tumor growth inhibition; TGI) compared to the buffer administered group", "setting": "MDA-MB-231 xenograft; n=10, calculated from FIG. 7", "result": 50.0, "unit": "%"}]}
